Article PMC8609364, “A Selective Tether Recruits Activated Response Regulator CheB to Its Chemoreceptor Substrate” (mBio, 2021)

System: Tar4EΔpp and Tar4QΔpp
Test: CheB binding to pentapeptide-lacking Tar, 4E and 4Q (biolayer interferometry)
Set-up: species or system E. coli
Procedure: We determined the kinetics of association and dissociation of methylesterase/deamidase CheB in its low- and high-activity form with the E. coli aspartate chemoreceptor Tar using biolayer interferometry ([22], [23]) and isolated receptor homodimers in Nanodiscs ([24], [25]). Apparent rate constants of association and dissociation were derived from global fits of time courses for binding and release (see Fig. S1 in the supplemental material). Equilibrium dissociation constants were calculated from those apparent rate constants.
E. coli CheB and Salmonella CheB D56C/C207S/C309S and D56C/S164A/C207S/C309S were purified as described previously ([11]). CheBC (amino acids [aa] 153 to 349) was purified using the procedure of West et al. ([40]), except that Bio-Gel P-60, was not used. […] The extent of modification was 59% for the former and 60% for the latter determined by reversed phase chromatography essentially as described previously ([26]) and confirmed by Nano LC-Nanospray QTQF mass spectroscopy. […]
Kinetics of CheB association and dissociation with Nanodisc-embedded Tar biotinylated at L378C were determined using biolayer interferometry ([22], [23]) as measured by a BLItz instrument (ForteBio, Menlo Park, CA, USA) and described in reference. […]

B1: methylesterase/deamidase CheB from E. coli, low-activity, unphosphorylated form (enzyme, UniProt P07330 1-349, looked up)
chain: MSKIRVLSVDDSALMRQIMTEIINSHSDMEMVATAPDPLVARDLIKKFNPDVLTLDVEMPRMDGLDFLEKLMRLRPMPVVMVSSLTGKGSEVTLRALELGAIDFVTKPQLGIREGMLAYNEMIAEKVRTAAKASLAAHKPLSAPTTLKAGPLLSSEKLIAIGASTGGTEAIRHVLQPLPLSSPALLITQHMPPGFTRSFADRLNKLCQIGVKEAEDGERVLPGHAYIAPGDRHMELSRSGANYQIKIHDGPAVNRHRPSVDVLFHSVAKQAGRNAVGVILTGMGNDGAAGMLAMRQAGAWTLAQNEASCVVFGMPREAINMGGVCEVVDLSQVSQQMLAKISAGQAIRI
notes: CheB methylesterase/deamidase of E. coli, unphosphorylated, from plasmid pCW/cheB; measured with 2 mM DTT in the buffer; also called low-activity CheB; unmodified CheB; source: E. coli K-12 RP3098 with pCW/cheB, purified
**Q.** With B1 as the molecule, how does the “preference for substrate (4Q) versus product (4E) form” value (Tar4QΔpp versus Tar4EΔpp) read?
**A.** not significantly different

**Q.** What about the “fold weaker than binding to pentapeptide / pentapeptide-bearing receptor” value (ratio of KD, Tar4Δpp versus pentapeptide-bearing) of the same molecule?
**A.** approximately fourfold
